Test [1] has as its target LarE from Thermotoga maritima, C-terminal His6-tagged (Thermotoga maritima). The test is described as follows: native MS; nondenaturing nano-ESI-MS (Q Exactive UHMR) under anoxic atmosphere; cluster-assembled His6-tagged LarETm after anaerobic incubation with IscSEc and L-cysteine; CID 15 eV.
The target is the same in test [2]. Nature of the test: SEC-MALS; Superdex 200 Increase 10/300 GL, 100 mM Tris-HCl pH 7.2, 300 mM NaCl, 0.5 ml/min; miniDAWN TREOS detector. Background: In gel filtration, larger molecules generally elute earlier.

This is an account of results in publication PMC9283937.

Where “and” joins values, the source holds several entries; their conditions need not be identical. Identical values can stand only once.

Turning to “LarE from Thermotoga maritima, C-terminal His6-tagged (enzyme)”, the stoichiometry N in test [1] is 2 and 4 and 6; in test [2], 2.

One may read the stoichiometry N as the number of molecules, sites or subunits per partner or assembly.
